This note sets out measurements from paper PMC10958042.

Sequences and labels used below:
B1: ATGL (PNPLA2, patatin-like phospholipase domain-containing protein 2), human, full length / G0S2 (G0/G1 switch protein 2), human (parent)
chain 1: MFPREKTWNISFAGCGFLGVYYVGVASCLREHAPFLVANATHIYGASAGALTATALVTGVCLGEAGAKFIEVSKEARKRFLGPLHPSFNLVKIIRSFLLKVLPADSHEHASGRLGISLTRVSDGENVIISHFNSKDELIQANVCSGFIPVYCGLIPPSLQGVRYVDGGISDNLPLYELKNTITVSPFSGESDICPQDSSTNIHELRVTNTSIQFNLRNLYRLSKALFPPEPLVLREMCKQGYRDGLRFLQRNGLLNRPNPLLALPPARPHGPEDKDQAVESAQAEDYSQLPGEDHILEHLPARLNEALLEACVEPTDLLTTLSNMLPVRLATAMMVPYTLPLESALSFTIRLLEWLPDVPEDIRWMKEQTGSICQYLVMRAKRKLGRHLPSRLPEQVELRRVQSLPSVPLSCAAYREALPGWMRNNLSLGDALAKWEECQRQLLLGLFCTNVAFPPEALRMRAPADPAPAPADPASPQHQLAGPAPLLSTPAPEARPVIGALGL
chain 2: METVQELIPLAKEMMAQKRKGKMVKLYVLGSVLALFGVVLGLMETVCSPFTAARRLRDQEAAVAELQAALERQALQKQALQEKGKQQDTVLGGRALSNRQHAS

Variants of B1 are the subject of this test. Description: LUMIER: Protein A-ATGL variant and firefly luciferase-partner co-expressed in HEK293T, lysates immunoprecipitated on IgG-coated plates, co-precipitated partner measured as luciferase luminescence. Particulars: with G0S2 (G0/G1 switch protein 2), transient co-transfection, IgG-coated LUMITRAC plates, 2 h at 4 °C, three PBS washes, Bright-Glo luciferase reagent, triplicates per assay, two …, scale: log2 fold change of co-immunoprecipitated luminescence relative to wild-type ATGL within each experiment.

With chain 1 MFPREKTWNISFAGCGFLGVYYVGVASCLREHAPFLVANATHIYGASAGALTATALVTGVCLGEAGAKFIEVSKEARKRFLGPLHPSFNLVKIILSFLLKVLPADSHEHASGRLGISLTRVSDGENVIISHFNSKDELIQANVCSGFIPVYCGLIPPSLQGVRYVDGGISDNLPLYELKNTITVSPFSGESDICPQDSSTNIHELRVTNTSIQFNLRNLYRLSKALFPPEPLVLREMCKQGYRDGLRFLQRNGLLNRPNPLLALPPARPHGPEDKDQAVESAQAEDYSQLPGEDHILEHLPARLNEALLEACVEPTDLLTTLSNMLPVRLATAMMVPYTLPLESALSFTIRLLEWLPDVPEDIRWMKEQTGSICQYLVMRAKRKLGRHLPSRLPEQVELRRVQSLPSVPLSCAAYREALPGWMRNNLSLGDALAKWEECQRQLLLGLFCTNVAFPPEALRMRAPADPAPAPADPASPQHQLAGPAPLLSTPAPEARPVIGALGL [chain 1 R95L], the screen value is -0.0587 (parent: 0.26, not graded) and -0.569 (parent: 0.56, not graded).

Take chain 1 MFPREKTWNISFAGCGFLGVYYVGVASCLREHAPFLVANATHIYGASAGALTATALVTGVCLGEAGAKFIEVSKEARKRFLGPLHPSFNLVKIIKSFLLKVLPADSHEHASGRLGISLTRVSDGENVIISHFNSKDELIQANVCSGFIPVYCGLIPPSLQGVRYVDGGISDNLPLYELKNTITVSPFSGESDICPQDSSTNIHELRVTNTSIQFNLRNLYRLSKALFPPEPLVLREMCKQGYRDGLRFLQRNGLLNRPNPLLALPPARPHGPEDKDQAVESAQAEDYSQLPGEDHILEHLPARLNEALLEACVEPTDLLTTLSNMLPVRLATAMMVPYTLPLESALSFTIRLLEWLPDVPEDIRWMKEQTGSICQYLVMRAKRKLGRHLPSRLPEQVELRRVQSLPSVPLSCAAYREALPGWMRNNLSLGDALAKWEECQRQLLLGLFCTNVAFPPEALRMRAPADPAPAPADPASPQHQLAGPAPLLSTPAPEARPVIGALGL [chain 1 R95K]: the screen value runs as follows: (parent: 0.26, not graded) 0.105; (parent: 0.56, not graded) 0.0501.

Turning to chain 1 MFPREKTWNISFAGCGFLGVYYVGVASCLREHAPFLVANATHIYGASAGALTATALVTGVCLGEAGAKFIEVSKEARKRFLGPLHPSFNLVKIIRSFLLKVLPADSHEHASGRLGISLTRVSDGENVIISHFNSKDELIQANVCSGFIPVYCGLIPPSLQGVRYVDGGISDNLPLYELKNTITVSPFSGESDICPQDSSTNIHELRVTNTSIQFNLRNLYRLSKALFPPEPLVLREMCKQGYRDGLRFLQRNGLLNRPNPLLALPPARPHGPEDKDQAVESAQAEDYSQLPGEDHILEHLPARLNEALLEACVEPTDLLTTLSNMLPVRLATAMMVPYTLPLESALSFTIRLLEWLPDVPEDIRWMKEQTGSICQYLVMRAKRKLGRHLPSRLPEAVELRRVQSLPSVPLSCAAYREALPGWMRNNLSLGDALAKWEECQRQLLLGLFCTNVAFPPEALRMRAPADPAPAPADPASPQHQLAGPAPLLSTPAPEARPVIGALGL [chain 1 Q396A], the screen value runs as follows: (parent: 0.26, not graded) -1.32; (parent: 0.56, not graded) -1.71.

Consider chain 1 MFPREKTWNISFAGCGFLGVYYVGVASCLREHAPFLVANATHIYGASAGALTATALVTGVCLGEAGAKFIEVSKEARKRFLGPLHPSFNLVKIIRSFLLKVLPADSHEHASGKLGISLTRVSDGENVIISHFNSKDELIQANVCSGFIPVYCGLIPPSLQGVRYVDGGISDNLPLYELKNTITVSPFSGESDICPQDSSTNIHELRVTNTSIQFNLRNLYRLSKALFPPEPLVLREMCKQGYRDGLRFLQRNGLLNRPNPLLALPPARPHGPEDKDQAVESAQAEDYSQLPGEDHILEHLPARLNEALLEACVEPTDLLTTLSNMLPVRLATAMMVPYTLPLESALSFTIRLLEWLPDVPEDIRWMKEQTGSICQYLVMRAKRKLGRHLPSRLPEQVELRRVQSLPSVPLSCAAYREALPGWMRNNLSLGDALAKWEECQRQLLLGLFCTNVAFPPEALRMRAPADPAPAPADPASPQHQLAGPAPLLSTPAPEARPVIGALGL [chain 1 R113K], for which the screen value reads like this: (parent: 0.26, not graded) 0.927; (parent: 0.56, not graded) -0.0371.

Regarding chain 1 MFPREKTWNISFAGCGFLGVYYVGVASCLREHAPFLVANATHIYGASAGALTATALVTGVCLGEAGAKFIEVSKEARKRFLGPLHPSFNLVKIIRSFLLKVLPADSHEHASGLLGISLTRVSDGENVIISHFNSKDELIQANVCSGFIPVYCGLIPPSLQGVRYVDGGISDNLPLYELKNTITVSPFSGESDICPQDSSTNIHELRVTNTSIQFNLRNLYRLSKALFPPEPLVLREMCKQGYRDGLRFLQRNGLLNRPNPLLALPPARPHGPEDKDQAVESAQAEDYSQLPGEDHILEHLPARLNEALLEACVEPTDLLTTLSNMLPVRLATAMMVPYTLPLESALSFTIRLLEWLPDVPEDIRWMKEQTGSICQYLVMRAKRKLGRHLPSRLPEQVELRRVQSLPSVPLSCAAYREALPGWMRNNLSLGDALAKWEECQRQLLLGLFCTNVAFPPEALRMRAPADPAPAPADPASPQHQLAGPAPLLSTPAPEARPVIGALGL [chain 1 R113L], the screen value is, setting by setting: (parent: 0.26, not graded) -0.0286; (parent: 0.56, not graded) -0.429.

For chain 1 MFPREKTWNISFAGCGFLGVYYVGVASCLREHAPFLVANATHIYGASAGALTATALVTGVCLGEAGAKFIEVSKEARKRFLGPLHPSFNLVKIIRSFLLKVLPADSHEHASGRLGISLTRVSDGENVIISHFNSKDELIQANVCSGFIPVYCGLIPPSLQGVKYVDGGISDNLPLYELKNTITVSPFSGESDICPQDSSTNIHELRVTNTSIQFNLRNLYRLSKALFPPEPLVLREMCKQGYRDGLRFLQRNGLLNRPNPLLALPPARPHGPEDKDQAVESAQAEDYSQLPGEDHILEHLPARLNEALLEACVEPTDLLTTLSNMLPVRLATAMMVPYTLPLESALSFTIRLLEWLPDVPEDIRWMKEQTGSICQYLVMRAKRKLGRHLPSRLPEQVELRRVQSLPSVPLSCAAYREALPGWMRNNLSLGDALAKWEECQRQLLLGLFCTNVAFPPEALRMRAPADPAPAPADPASPQHQLAGPAPLLSTPAPEARPVIGALGL [chain 1 R163K], the screen value is, setting by setting: (parent: 0.26, not graded) 0.411; (parent: 0.56, not graded) 0.335.
